Test results as given in article PMC7495412.

Columns and labels:
Assay in all cases: co-IP
[1] = target: μ2-eGFP (rat AP2M1 with internal HA tag and eGFP) (rat) (UniProt P84092)
[2] = target: σ2-eGFP (AP2S1 with C-terminal eGFP) (UniProt P62744)
[3] = target: α-eGFP (hybrid mouse α-adaptin with eGFP inserted into the hinge region) (mouse) (UniProt P17427)

UniProt P62744, sequence (P62744 whole entry): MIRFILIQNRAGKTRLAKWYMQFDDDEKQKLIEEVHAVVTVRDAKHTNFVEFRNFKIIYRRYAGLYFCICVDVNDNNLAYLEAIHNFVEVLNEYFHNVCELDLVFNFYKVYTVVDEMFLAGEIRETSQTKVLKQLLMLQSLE
UniProt P84092, sequence (P84092 whole entry): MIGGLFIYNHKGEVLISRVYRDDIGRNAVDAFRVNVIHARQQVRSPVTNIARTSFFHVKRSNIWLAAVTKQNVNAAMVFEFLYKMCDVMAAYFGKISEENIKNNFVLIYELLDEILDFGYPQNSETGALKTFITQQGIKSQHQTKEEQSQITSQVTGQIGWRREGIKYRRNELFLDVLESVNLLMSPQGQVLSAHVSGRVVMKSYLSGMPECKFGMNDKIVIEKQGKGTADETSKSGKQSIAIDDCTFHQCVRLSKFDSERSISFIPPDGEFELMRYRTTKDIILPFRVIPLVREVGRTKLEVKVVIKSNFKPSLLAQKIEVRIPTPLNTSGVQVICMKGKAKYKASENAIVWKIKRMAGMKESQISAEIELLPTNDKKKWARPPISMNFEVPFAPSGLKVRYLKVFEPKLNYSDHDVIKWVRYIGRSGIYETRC

Row | Substance | percent of the endogenous subunit pulled down [1] | percent of the endogenous subunit pulled down [2] | percent of the endogenous subunit pulled down [3]
1 | endogenous α subunit of AP2 (α-adaptin) (from UniProt O94973 1-939) (natural protein) | 94.1% | 98.7% | –
2 | endogenous μ2 subunit of AP2 (from UniProt Q96CW1 1-435) (natural protein) | – | 79.5% | 99.3%
3 | endogenous σ2 subunit of AP2 (from UniProt P53680 1-142) (natural protein) | 68% | – | 78.8%
